In patent publication US9066906B2, “Lunasin-containing complex and purification of lunasin from plants” (University of Louisville Research Foundation, Inc., priority 2009, dated 2015):
Entries after “also recorded” stand apart in the source; their conditions may differ.

Columns and labels:
[1] = tested on: SK-BR-3 human breast cancer cells; assay: MTS cell proliferation assay, lunasin in combination with curcumin; type: cell-based; settings: FIG. 7; for effect on the antiproliferative effect of curcumin: SK-BR-3 breast cancer cells, in combination with curcumin
Procedure: FIGS. 7A and 7B include the results of MTS cell proliferation assays, using SK-BR-3 human breast cancer cells, performed in the absence or presence of either synthetic lunasin or purified soybean-derived lunasin in combination with curcumin over a 1-3 day period.
MTS cell proliferation assays using SK-BR-3 human breast cancer cells were performed in the absence or presence of either synthetic lunasin or purified soybean-derived lunasin in combination with curcumin over a 2-3 day period. SK-BR-3 cells, whose growth were unaffected by lunasin alone, were inhibited up to 98% when combined with curcumin.
With reference to FIG. 7, synthetic lunasin and highly purified soybean-derived lunasin were used in combination with curcumin in an in vitro cell proliferation assays to assess the activity of lunasin against specific cancer cell lines.

[2] = tested on: H661, non-small cell lung cancer; assay: MTS cell proliferation assay; type: cell-based, human; settings: lunasin 30 or 100 μM, complex 10 or 30 μM, 72 hours, FIG. 4
Procedure: (§1) The ability of lunasin, purified from soybean white flake in accordance with the presently-disclosed subject matter, to inhibit the proliferation of specific cancer cell lines was studied. Recent studies have shown that lunasin and lunasin-containing protein preparations can inhibit the proliferation of several cancer cell lines in vitro. To further assess and confirm the biological activity of lunasin and the lunasin-containing complex, cell proliferation assays were conducted with a panel of established cancer cell lines.
(§2) A panel of cancer cell lines was collected from colleagues or purchased from the American Type Culture Collection. Cells were grown in the appropriate medium and treated with PBS (control), lunasin (30 or 100 μM), or the lunasin-containing complex (10 or 30 μM) for 72 hours. Cell viability was assessed using a standard [3-(4,5-dimethylthiazol-2-yl)-5-(3-carboxymethoxy-phenyl)-2-(4-sulfo-phenyl)-2H-tetrazolium (MTS) assay. The data shown (FIG. 4) represent the number of viable cells relative to the PBS-treated controls. The human cell lines tested were: H661, non-small cell lung cancer; H1299, non-small cell lung cancer; SKBR3, adenocarcinoma mammary gland origin; MDA-MB-231, adenocarcinoma, mammary gland origin; MCF-7, adenocarcinoma, mammary gland origin; and HT-29, adenocarcinoma, colon origin.

[3] = tested on: H1299, non-small cell lung cancer; assay: MTS cell proliferation assay; type: cell-based, human; settings: lunasin 30 or 100 μM, complex 10 or 30 μM, 72 hours, FIG. 4
Procedure: as §1, §2

[4] = tested on: MDA-MB-231, adenocarcinoma, mammary gland origin; assay: MTS cell proliferation assay; type: cell-based, human; settings: lunasin 30 or 100 μM, complex 10 or 30 μM, 72 hours, FIG. 4
Procedure: as §1, §2

human histone H3 (hH3.3) = human histone H3 (hH3.3) (Homo sapiens, UniProt P84243); assay: in vitro histone binding assay (microtiter plate, anti-lunasin antibody, absorbance at 450 nm); settings: FIG. 3
Source text: (§3) The ability of lunasin, purified from soybean white flake in accordance with the presently-disclosed subject matter, to bind the cores histones H3 and H4 was studied. […] To confirm the biological activity of the lunasin purified from soybean white flake using the methods in the subject matter disclosed herein, an in vitro binding assay was used to assess binding to the human H3 and H4 proteins.
(§4) Increasing amounts of histone 3.3 (hH3.3) and histone 4 (hH4) were bound to wells of a […] microtiter plate. Different amounts of either synthetic lunasin or purified lunasin were added to the wells and allowed to bind. The concentration of lunasin bound was determined using a polyclonal antibody against lunasin and a horseradish peroxidase conjugated antibody that recognizes the lunasin antibody. Binding was quantitated by measuring the absorbance at 450 nm.

human histone H4 (hH4) = human histone H4 (hH4) (Homo sapiens, UniProt P62805); assay: as above; settings: FIG. 3
Source text: as §3, §4

[5] = tested on: panel of cancer cell lines; assay: MTS cell proliferation assays with a panel of established cancer cell lines; type: cell-based, human; settings: 72 hours, FIG. 4
Procedure: as §1, §2

[6] = tested on: SKBR3, adenocarcinoma mammary gland origin; assay: MTS cell proliferation assay; type: cell-based, human; settings: complex 10 or 30 μM, 72 hours, FIG. 4
Procedure: as §1, §2

[7] = tested on: HT-29, adenocarcinoma, colon origin; assay: MTS cell proliferation assay; type: cell-based, human; settings: complex 10 or 30 μM, 72 hours, FIG. 4
Procedure: as §1, §2

[8] = tested on: MCF-7, adenocarcinoma, mammary gland origin; assay: MTS cell proliferation assay; type: cell-based, human; settings: complex 10 or 30 μM, 72 hours, FIG. 4
Procedure: as §1, §2

| preference of binding, H4 versus H3 (human histone H4 (hH4)) | Molecule | growth of SK-BR-3 cells, lunasin alone ([1]; without curcumin, 2-3 day period) | growth/proliferation of H661 cells (viable cells relative to PBS-treated controls) [2] | growth/proliferation of H1299 cells (viable cells relative to PBS-treated controls) [3] | growth/proliferation of MDA-MB-231 cells (viable cells relative to PBS-treated controls) [4] | binding to human histone H3 (human histone H3 (hH3.3)) | binding to human histone H4 (human histone H4 (hH4)) | effect on the antiproliferative effect of curcumin [1] | antiproliferative effectiveness compared with lunasin peptide alone [5] | proliferation of SKBR3 cells (viable cells relative to PBS-treated controls) [6] | proliferation of HT-29 cells (viable cells relative to PBS-treated controls) [7] | proliferation of MCF-7 cells (viable cells relative to PBS-treated controls) [8] |
| --- | --- | --- | --- | --- | --- | --- | --- | --- | --- | --- | --- | --- |
|  | lunasin | unaffected |  |  |  |  |  |  |  |  |  |  |
| higher affinity for H4 than for H3 | soybean-derived lunasin: lunasin polypeptide purified from soybean white flake, 5139.25 Da, corresponding to SEQ ID NO: 2 (additional C-terminal Asn) (SKWQHQQDSCRKQLQGVNLTPCEKHIMEKIQGRGDDDDDDDDDN; Glycine max) |  | significantly inhibit the growth | minor effect | minor effect | affinity greater than that observed using a synthetic lunasin; also recorded: bound to both H4 and H3 in a dose dependent manner | affinity greater than that observed using a synthetic lunasin; also recorded: bound to both H4 and H3 in a dose dependent manner | significantly enhanced the antiproliferative effect of curcumin |  |  |  |  |
| more binding to H4 compared to H3 | synthetic lunasin: synthetic lunasin created by peptide synthesis, comprised of SEQ ID NO: 1 [reference compound] |  |  |  |  | binding was lower than observed using the soybean-derived lunasin | binding was lower than observed using the soybean-derived lunasin | significantly enhanced the antiproliferative effect of curcumin |  |  |  |  |
|  | lunasin-containing complex: lunasin polypeptide of SEQ ID NO: 2 linked by disulfide bridges to a second polypeptide of SEQ ID NO: 3, 14.1 kDa, from soybean (protein, disulfide-linked complex; Glycine max) chain 1: SKWQHQQDSCRKQLQGVNLTPCEKHIMEKIQGRGDDDDDDDDDN chain 2: EGKDEDEEEEGHMQKCCTEMSELRSPKCQCKALQKIMENQSEELEEKQKKKMEKELINLATMCRFGPMIQCDLSSDD |  | most sensitive | most sensitive | most sensitive |  |  |  | more effective than the lunasin peptide alone | reduced proliferation | reduced proliferation | reduced proliferation |
